# Measured values as given in patent publication US20230242592A1, “IDENTIFICATION OF […] PEPTIDES AND USES THEREOF” (priority 2020, published 2023).
# Legend:
# [1] = target: RBD-His (Sino Biological) (SARS-CoV-2) (UniProt P0DTC2); assay: BLI (summary of the working examples)
# [2] = target: RBD-His (Sino Biological) (SARS-CoV-2) (UniProt P0DTC2); assay: BLI steady-state, CR3022 on anti-human IgG Fc tips, RBD-His as analyte
substance,measurement,setting,value
"neutralizing monoclonal IgG antibody against the SARS-CoV-2 spike glycoprotein (CR3022, antibodies-online)",Kd,[1],6 nM
same,Kd,[2],8.6 nM
